This is an account of results in publication PMC9570212, “PAUF Induces Migration of Human Pancreatic Cancer Cells Exclusively via the TLR4/MyD88/NF-κB Signaling Pathway” (International Journal of Molecular Sciences, 2022).

This test has as its target human TLR4 overexpressed in Panc-1 cells (Panc-1_TLR4^OE) (human, UniProt O00206 24-839). The test can be described thus: cell-based or functional assay.

human TLR4 overexpressed in Panc-1 cells (Panc-1_TLR4^OE), sequence (O00206 24-839): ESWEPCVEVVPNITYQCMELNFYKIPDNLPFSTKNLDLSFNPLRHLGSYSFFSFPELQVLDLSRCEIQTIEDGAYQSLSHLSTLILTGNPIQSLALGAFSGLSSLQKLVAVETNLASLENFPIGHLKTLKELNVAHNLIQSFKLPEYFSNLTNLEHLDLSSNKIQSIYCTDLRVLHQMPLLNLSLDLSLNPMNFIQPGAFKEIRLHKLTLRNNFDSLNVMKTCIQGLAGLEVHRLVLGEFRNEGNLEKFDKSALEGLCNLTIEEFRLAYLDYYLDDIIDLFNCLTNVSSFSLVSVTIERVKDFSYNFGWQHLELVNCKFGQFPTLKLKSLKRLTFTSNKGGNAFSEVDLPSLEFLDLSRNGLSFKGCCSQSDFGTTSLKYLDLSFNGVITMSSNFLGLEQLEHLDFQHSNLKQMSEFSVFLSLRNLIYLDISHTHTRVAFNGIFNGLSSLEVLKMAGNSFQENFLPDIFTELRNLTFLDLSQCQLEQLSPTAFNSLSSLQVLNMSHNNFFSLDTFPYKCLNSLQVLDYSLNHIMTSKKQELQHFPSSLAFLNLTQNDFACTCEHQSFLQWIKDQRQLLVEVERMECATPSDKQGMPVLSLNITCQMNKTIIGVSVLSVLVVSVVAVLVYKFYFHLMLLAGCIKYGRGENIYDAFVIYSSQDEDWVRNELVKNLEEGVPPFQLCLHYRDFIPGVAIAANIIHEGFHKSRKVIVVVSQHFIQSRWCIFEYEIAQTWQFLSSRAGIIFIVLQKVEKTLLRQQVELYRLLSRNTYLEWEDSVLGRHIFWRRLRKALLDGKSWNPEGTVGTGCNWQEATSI

B1: recombinant pancreatic adenocarcinoma up-regulated factor (PAUF) (ligand, UniProt Q96DA0 17-172, looked up)
chain: GKMYGPGGGKYFSTTEDYDHEITGLRVSVGLLLVKSVQVKLGDSWDVKLGALGGNTQEVTLQPGEYITKVFVAFQAFLRGMVMYTSKDRYFYFGKLDGQISSAYPSQEGQVLVGIYGQYQLLGIKSIGFEWNYPLEEPTTEPPVNLTYSANSPVGR
On to B1, for which the “NF-κB dual-luciferase reporter activity in Panc-1 cells transiently overexpressing TLR4 (rPAUF 0.1 µg/mL), relative to Panc-1_trans Ctrl cells; no effect of rPAUF in control cells” value was 4.6 fold.
